From patent publication US20210115142A1 (NANJING LEADS BIOLABS, published 2021)
One block for each binder: values may come before it.

Assays:
Human TGFβ1 protein = target: T1, Human TGFβ1 protein (human, UniProt P01137 279-390); assay: ELISA, human TGFβ1 coated at 10 ng/well, detection with HRP goat anti-human Fc, OD450-620 [left panel]
T1 construct: also called TGFβ1 protein (Sino, 10804-HNAC); Novoprotein Inc., Cat #CA59
Experimental: (§1) The plates were then blocked by incubation with 1% BSA in PBS for one hour at 37° C. After blocking, the plates were washed three times with PBST (PBS containing 0.05% Tween 20). […] After binding, the plates were washed three times with PBST, incubated for one hour at 37° C. with peroxidase-labeled Goat anti-human Fc antibody (Jackson Immuno Research, Cat #109-035-098) diluted 1/20,000 in binding buffer, washed again, developed with TMB (ThermoFisher Cat #34028) for 15 minutes, and then stopped with 1M H₂SO₄. The absorbance at 450 nm-620 nm was determined.

[1] = target: T2, Human PD-1 protein (ACRObiosystems, Cat #PD1-H5221) (human, UniProt Q15116 25-167); assay: ELISA, human PD-1 coated at 25 ng/well, detection with HRP goat anti-human F(ab')2, OD450-620 [right panel]
T2 construct: Bought soluble protein
T2 sequence (Q15116 25-167 limits assumed): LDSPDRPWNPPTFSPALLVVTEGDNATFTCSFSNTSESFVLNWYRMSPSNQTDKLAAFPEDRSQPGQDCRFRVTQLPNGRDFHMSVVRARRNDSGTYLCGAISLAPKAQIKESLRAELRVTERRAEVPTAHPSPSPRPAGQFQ
Experimental: (§2) An ELISA assay was performed for determination of the relative binding capacity of the fusion proteins to human PD-1.
as §1, with “Human PD-1 protein (ACRObiosystems, Cat #PD1-H5221) was immobilized onto 96-well plates in PBS (Hyclone, Cat #SH30256.01) by incubation overnight at 4° C., 25 ng/well. The” for “The”, “F(ab′)²” for “Fc”, “#109-035-097)” for “#109-035-098)”, “(ThermoFisher,” for “(ThermoFisher”, “Each plate well contained 50 μL of solution” for “The absorbance”, “each step.” for “450 nm-620 nm was determined.”

[2] = target: T2, Human PD-1 protein (ACRObiosystems, Cat …); assay: ELISA, human PD-1 coated at 25 ng/well, detection with HRP goat anti-human F(ab')2, OD450-620 [left panel]
Experimental: as §2
as §1, with “Human PD-1 protein (ACRObiosystems, Cat #PD1-H5221) was immobilized onto 96-well plates in PBS (Hyclone, Cat #SH30256.01) by incubation overnight at 4° C., 25 ng/well. The” for “The”, “F(ab′)²” for “Fc”, “#109-035-097)” for “#109-035-098)”, “(ThermoFisher,” for “(ThermoFisher”, “Each plate well contained 50 μL of solution” for “The absorbance”, “each step.” for “450 nm-620 nm was determined.”

T1 sequence (P01137 279-390 limits assumed): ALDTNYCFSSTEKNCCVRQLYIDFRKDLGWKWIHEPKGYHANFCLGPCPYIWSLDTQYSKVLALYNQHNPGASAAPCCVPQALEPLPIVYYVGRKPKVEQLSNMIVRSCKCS

- EC50 (Human TGFβ1 protein): 0.0652 nM
B1: human TGFβR2-hFc (ACRObiosystems, Cat #TG2-H5252) (Fc fusion, UniProt P37173 23-159, looked up)
chain: TIPPHVQKSVNNDMIVTDNNGAVKFPQLCKFCDVRFSTCDNQKSCMSNCSITSICEKPQEVCVAVWRKNDENITLETVCHDPKLPYHDFILEDAASPKCIMKEKKKPGETFFMCSCSSDECNDNIIFSEEYNTSNPD
notes: Bought Fc fusion; also called positive control; not shown: human Fc of the bought fusion

- EC50 [1]: 0.0995 nM
- EC50 [2]: 0.0957 nM
B2: anti-PD-1 antibody 21F12-1F6 (antibody, human IgG1, kappa, L234A L235A, V domains shown)
VH: QMQLVQSGAEVKKPGASVKLSCKASGYIFQSYYIHWVRQAPGQGLEWVGVINPSGGSTTYAQKFQGRVTMTRDTSISTAYMELSRLRSDDTVVYYCARGSYSSGWDYYYYYGMDVWGKGTLVTVSS
VL: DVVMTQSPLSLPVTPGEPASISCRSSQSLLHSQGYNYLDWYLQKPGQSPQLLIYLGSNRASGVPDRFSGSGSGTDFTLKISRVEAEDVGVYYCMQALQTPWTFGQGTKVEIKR
notes: Positive control in the PD-1 ELISA; also called anti-human PD-1; antibody 21F12-1F6 in PCT/CN2019/087287
